# Results: patent publication US8563520B2, “Treatment of ocular disease with inhibitors of alpha2 macroglobulin protein” (McGill University, priority 2005, dated 2013)
# Where two headings read alike, the source gives them in different places.
# Test system: Rat Retina
# Experimental: The following experiment was conducted in order to assess changes in gene expression induced in the retina after intraocular injection of α2 macroglobulin protein. 2 μg of α2 macroglobulin protein was intraocularly injected into the right eye of rats (n=3) and the left eye was used as a control. One rat was tested at Day 3, one rat was tested at Day 7 and one rat was tested at Day 14. Retinas were isolated and mRNA was collected. Samples from each of the rats were studied by gene microassays. Retinas were carefully dissected out to insure that only retinal mRNAs were prepared for gene microarray studies. Samples were obtained from control eyes.
# Total RNA was isolated from retinal tissue using TRIZOL® (Life Technologies). RNA was then further purified using the RNAEASY® (QIAGEN®). The integrity of the RNA samples was assessed by running aliquots on RNA 6000 Nano LabChip (Agilent) using the 2100 bioanalyzer (Agilent).
# Probe synthesis, hybridization and scanning were done according to Affymetrix protocol, as a service at the McGill University and Genome Quebec Innovation Centre. For the experiments shown, Rat U34 Genome Arrays (8,700 genes, Affymetrix) were used. Briefly, RNA samples were first converted to double stranded cDNA (T7-(dT)24 primer (Genset)). Then the cDNAs were purified and used to generate the biotinylated cRNA probes (Bioarray High Yield RNA transcript labeling kit (Enzo diagnostics)). An aliquot of the purified cRNA was analyzed on RNA 6000 Nano LabChip (Agilent) to verify the integrity and size distribution. Immediately after hybridization the chip was placed in the Affymetrix GeneChip Fluidics Station 400 (Affymetrix). In total, 10 low-stringency washes (63 SSPE, 0.01% Tween-20, 0.005% Antifoam) and 4 high-stringency washes (100 mM MES, 0.1 M NaCl, 0.01% Tween-20, 50 C) were performed (all reagents from Sigma). The array was then incubated with SAPE® (streptavidin/phycoerythrin stain, Molecular Probes), followed by 10 low stringency washes. The array was incubated with biotinylated anti-streptavidin antibody (Vector Laboratories) and washed again with 15 low stringency washes. Specifically bound probe was detected by placing the array in the Agilent GeneArray scanner 2500 (Affymetrix). The scanned images were analyzed using the Microarray Analysis Suite version 5.0 (Affymetrix).
# The fold change was analyzed by […] data for the control eye from the data on the eye injected with α2 macroglobulin. A fold change of 2 or greater indicates upregulation. A fold of 0.5 to 2 indicates no change. A fold change of 0.5 or less indicates downregulation.
# [1] = gene ADP-ribosylation factor guanine nucleotide-exchange factor 1 (1392282_at)
# [2] = gene Bone morphogenetic protein receptor, type 1A (1390398_at)
# [3] = gene CDNA clone IMAGE: 7321089 (1389986_at)
# [4] = gene CREB binding protein (1385852_at)
# [5] = gene Ewing sarcoma breakpoint region 1 (1378518_at)
# [6] = gene Exosome component 8 (predicted) (1386936_at)
# [7] = gene FERM domain containing 4B (1384681_at)
# [8] = gene Fc receptor, IgG, low affinity IIb (1371079_at)
# [9] = gene High density lipoprotein binding protein (1375309_at)
# [10] = gene RT1 class II, locus Ba (1370822_at)
# [11] = gene RT1 class II, locus Bb (1371033_at)
# [12] = gene RT1 class II, locus Da (1370883_at)
# [13] = gene RT1 class II, locus Db1 (1370383_s_at)
# [14] = gene S100 calcium binding protein A11 (calizzarin) (1375170_at)
# [15] = gene Similar to CG10084-PA (1394756_at)
# [16] = gene Similar to NICE-3 (1397412_at)
# [17] = gene Similar to expressed sequence AV312086 (predicted) (1390657_at)
# [18] = gene Similar to hypothetical protein D630010C10 (1385108_at)
# [19] = gene Thyroid hormone receptor interactor 12 (1380803_at)
# [20] = gene Transcribed locus (1381100_at)
# [21] = gene Transcribed locus (1382211_at)
# [22] = gene Transcribed locus (1382368_at)
# [23] = gene Transcribed locus (1382510_at)
# [24] = gene Transcribed locus (1384014_at)
# [25] = gene Transcribed locus (1385552_at)
# [26] = gene Transcribed locus (1391757_at)
# [27] = gene Transcribed locus (1392155_at)
# [28] = gene Transcribed locus (1392675_at)
# [29] = gene Transcribed locus (1395390_at)
# [30] = gene Transcribed locus (1397883_at)
# [31] = gene actin related protein 2/3 complex, subunit 1B (1386925_at)
# [32] = gene argininosuccinate synthetase (1370964_at)
# [33] = gene ash1 (absent, small, or homeotic)-like (Drosophila) (predicted) (1382862_at)
# [34] = gene cold inducible RNA binding protein (1382809_at)
# [35] = gene complement component 1, s subcomponent (1387893_at)
# [36] = gene complement component 3 (1368000_at)
# [37] = gene complement component 4a (1370892_at)
molecule,measurement,setting,value
"α2m: α2 macroglobulin protein injected intraocularly into normal rat eyes (protein, UniProt P06238 28-1472, looked up) Alpha-2-macroglobulin: SAPQKPIYMVMVPSLLHAGTPEKACFLFSHLNETVAVRVSLESVRGNQSLFTDLVVDKDLFHCTSFTVPQSSSDEVMFFTVQVKGATHEFRRRSTVLVKKKESLVFAQTDKPIYKPGQTVRFRVVSLDESFHPLNELIPLLYIQDPKNNRIAQWQNFNLEGGLKQLSFPLSSEPTQGSYKVVIRTESGRTVEHPFSVEEFVLPKFEVRVTVPETITILEEEMNVSVCGIYTYGKPVPGRVTVNICRKYSNPSNCFGEESVAFCEKLSQQLDGRGCFSQLVKTKSFQLKRQEYEMQLDVHAKIQEEGTGVEETGKGLTKITRTITKLSFVNVDSHFRQGIPFVGQVLLVDGRGTPIPYETIFIGADEANLYINTTTDKHGLARFSINTDDIMGTSLTVRAKYKDSNACYGFRWLTEENVEAWHTAYAVFSPSRSFLHLESLPDKLRCDQTLEVQAHYILNGEAMQELKELVFYYLMMAKGGIVRAGTHVLPLKQGQMRGHFSILISMETDLAPVARLVLYAILPNGEVVGDTAKYEIENCLANKVDLVFRPNSGLPATRALLSVMASPQSLCGLRAVDQSVLLMKPETELSASLIYDLLPVKDLTGFPQGADQREEDTNGCVKQNDTYINGILYSPVQNTNEEDMYGFLKDMGLKVFTNSNIRKPKVCERLRDNKGIPAAYHLVSQSHMDAFLESSESPTETRRSYFPETWIWDLVVVDSAGVAEVEVTVPDTITEWKAGAFCLSNDTGLGLSPVVQFQAFQPFFVELTMPYSVIRGEAFTLKATVLNYLPTCIRVAVQLEASPDFLAAPEEKEQRSHCICMNQRHTASWAVIPKSLGNVNFTVSAEALNSKELCGNEVPVVPEQGKKDTIIKSLLVEPEGLENEVTFNSLLCPMGAEVSELIALKLPSDVVEESARASVTVLGDILGSAMQNTQDLLKMPYGCGEQNMVLFAPNIYVLDYLNETQQLTQEIKTKAIAYLNTGYQRQLNYKHRDGSYSTFGDKPGRNHANTWLTAFVLKSFAQARKYIFIDEVHITQALLWLSQQQKDNGCFRSSGSLLNNAMKGGVEDEVTLSAYITIALLEMSLPVTHPVVRNALFCLDTAWKSARGGAGGSHVYTKALLAYAFALAGNQDTKKEILKSLDEEAVKEEDSVHWTRPQKPSVSVALWYQPQAPSAEVEMTAYVLLAYLTTEPAPTQEDLTAAMLIVKWLTKQQNSHGGFSSTQDTVVALHALSKYGSATFTRAKKAAQVTIHSSGTFSTKFQVNNNNQLLLQRVTLPTVPGDYTVKVTGEGCVYLQTSLKYSVLPREEEFPFTVVVQTLPGTCEDPKAHTSFQISLNISYTGSRSESNMAIADVKMVSGFIPLKPTVKMLERSVHVSRTEVSNNHVLIYLDKVSNQTVNLSFTVQQDIPIRDLKPAVVKVYDYYEKDEFAVAKYSAPCSTDYGNA",Fold Change (α2m vs normal) Day 3,[1],0.5
same,Fold Change (α2m vs normal) Day 7,[1],0.3
same,Fold Change (α2m vs normal) Day 3,[2],0.4
same,Fold Change (α2m vs normal) Day 7,[2],0.2
same,Fold Change (α2m vs normal) Day 14,[2],2.6
same,Fold Change (α2m vs normal) Day 3,gene CD74 antigen (1367679_at),10.1
same,Fold Change (α2m vs normal) Day 7,gene CD74 antigen (1367679_at),6.5
same,Fold Change (α2m vs normal) Day 3,[3],0.5
same,Fold Change (α2m vs normal) Day 7,[3],0.3
same,Fold Change (α2m vs normal) Day 14,[3],2.9
same,Fold Change (α2m vs normal) Day 3,[4],0.5
same,Fold Change (α2m vs normal) Day 7,[4],0.4
same,Fold Change (α2m vs normal) Day 3,[5],0.4
same,Fold Change (α2m vs normal) Day 7,[5],0.1
same,Fold Change (α2m vs normal) Day 3,[6],0.4
same,Fold Change (α2m vs normal) Day 7,[6],4.3
same,Fold Change (α2m vs normal) Day 14,[6],2.4
same,Fold Change (α2m vs normal) Day 3,[7],0.5
same,Fold Change (α2m vs normal) Day 7,[7],0.2
same,Fold Change (α2m vs normal) Day 14,[7],2.3
same,Fold Change (α2m vs normal) Day 3,[8],9.4
same,Fold Change (α2m vs normal) Day 7,[8],2.1
same,Fold Change (α2m vs normal) Day 3,[9],0.5
same,Fold Change (α2m vs normal) Day 7,[9],0.5
same,Fold Change (α2m vs normal) Day 3,gene LOC361776 (1373010_at),20.1
same,Fold Change (α2m vs normal) Day 7,gene LOC361776 (1373010_at),0.5
same,Fold Change (α2m vs normal) Day 3,[10],8.3
same,Fold Change (α2m vs normal) Day 7,[10],4.5
same,Fold Change (α2m vs normal) Day 3,[11],6.8
same,Fold Change (α2m vs normal) Day 7,[11],5.2
same,Fold Change (α2m vs normal) Day 3,[12],16.1
same,Fold Change (α2m vs normal) Day 7,[12],11.3
same,Fold Change (α2m vs normal) Day 3,[13],4.9
same,Fold Change (α2m vs normal) Day 7,[13],3.5
same,Fold Change (α2m vs normal) Day 3,[14],2.0
same,Fold Change (α2m vs normal) Day 7,[14],4.5
same,Fold Change (α2m vs normal) Day 3,[15],0.5
same,Fold Change (α2m vs normal) Day 7,[15],0.3
same,Fold Change (α2m vs normal) Day 14,[15],2.4
same,Fold Change (α2m vs normal) Day 3,[16],0.5
same,Fold Change (α2m vs normal) Day 7,[16],0.4
same,Fold Change (α2m vs normal) Day 14,[16],2.0
same,Fold Change (α2m vs normal) Day 3,[17],0.4
same,Fold Change (α2m vs normal) Day 7,[17],0.3
same,Fold Change (α2m vs normal) Day 3,[18],0.4
same,Fold Change (α2m vs normal) Day 7,[18],0.2
same,Fold Change (α2m vs normal) Day 3,[19],0.3
same,Fold Change (α2m vs normal) Day 7,[19],0.4
same,Fold Change (α2m vs normal) Day 3,[20],0.4
same,Fold Change (α2m vs normal) Day 7,[20],0.3
same,Fold Change (α2m vs normal) Day 14,[20],5.4
same,Fold Change (α2m vs normal) Day 3,[21],0.3
same,Fold Change (α2m vs normal) Day 7,[21],4.2
same,Fold Change (α2m vs normal) Day 3,[22],0.4
same,Fold Change (α2m vs normal) Day 7,[22],0.2
same,Fold Change (α2m vs normal) Day 14,[22],2.7
same,Fold Change (α2m vs normal) Day 3,[23],0.4
same,Fold Change (α2m vs normal) Day 7,[23],0.3
same,Fold Change (α2m vs normal) Day 3,[24],0.5
same,Fold Change (α2m vs normal) Day 7,[24],4.2
same,Fold Change (α2m vs normal) Day 14,[24],2.0
same,Fold Change (α2m vs normal) Day 3,[25],0.5
same,Fold Change (α2m vs normal) Day 7,[25],0.3
same,Fold Change (α2m vs normal) Day 3,[26],0.5
same,Fold Change (α2m vs normal) Day 7,[26],0.2
same,Fold Change (α2m vs normal) Day 14,[26],2.0
same,Fold Change (α2m vs normal) Day 3,[27],2.4
same,Fold Change (α2m vs normal) Day 7,[27],16.6
same,Fold Change (α2m vs normal) Day 3,[28],0.4
same,Fold Change (α2m vs normal) Day 7,[28],0.3
same,Fold Change (α2m vs normal) Day 3,[29],0.4
same,Fold Change (α2m vs normal) Day 7,[29],4.1
same,Fold Change (α2m vs normal) Day 3,[30],2.4
same,Fold Change (α2m vs normal) Day 7,[30],17.0
same,Fold Change (α2m vs normal) Day 3,[31],2.7
same,Fold Change (α2m vs normal) Day 7,[31],2.0
same,Fold Change (α2m vs normal) Day 3,[32],0.4
same,Fold Change (α2m vs normal) Day 7,[32],2.4
same,Fold Change (α2m vs normal) Day 3,[33],0.5
same,Fold Change (α2m vs normal) Day 7,[33],0.2
same,Fold Change (α2m vs normal) Day 3,gene cadherin 1 (1386947_at),0.4
same,Fold Change (α2m vs normal) Day 7,gene cadherin 1 (1386947_at),9.6
same,Fold Change (α2m vs normal) Day 14,gene cadherin 1 (1386947_at),2.4
same,Fold Change (α2m vs normal) Day 3,[34],0.4
same,Fold Change (α2m vs normal) Day 7,[34],0.1
same,Fold Change (α2m vs normal) Day 14,[34],2.2
same,Fold Change (α2m vs normal) Day 3,[35],6.0
same,Fold Change (α2m vs normal) Day 7,[35],3.6
same,Fold Change (α2m vs normal) Day 3,[36],8.4
same,Fold Change (α2m vs normal) Day 7,[36],2.1
same,Fold Change (α2m vs normal) Day 3,[37],2.2
same,Fold Change (α2m vs normal) Day 7,[37],2.3
same,Fold Change (α2m vs normal) Day 3,gene complement factor B (1389470_at),3.9
